In article PMC12856669 (2026):
Positions count from the first letter of the chain named.

Key:
[1] = molecular target: NpF2164g6 (1038–1206), holo-protein, not biotinylated
[2] = molecular target: T1, NpF2164g6 (1038–1206), holo-protein, not biotinylated (phycocyanobilin (PCB) chromophore bound); experiment: dark state (Pr), thermal reversion
T1 chain: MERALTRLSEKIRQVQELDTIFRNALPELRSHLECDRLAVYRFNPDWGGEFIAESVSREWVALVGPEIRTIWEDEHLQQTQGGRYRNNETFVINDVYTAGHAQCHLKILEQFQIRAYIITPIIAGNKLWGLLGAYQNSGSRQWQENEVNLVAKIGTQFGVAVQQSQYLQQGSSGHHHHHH

[3] = molecular target: T1, NpF2164g6 (1038–1206), holo-protein, …; experiment: Pr-state (dark), from thermal reversion rate
[4] = molecular target: Biotinylated NpF2164g6 (1038–1206), Avi-tagged holo-protein; experiment: ELISA; purified biotinylated NpF2164g6 immobilised, purified FLAG-tagged binders, dark-adapted (Pr state)
Sequence of Biotinylated NpF2164g6 (1038–1206), Avi-tagged holo-protein (main, as listed by the source): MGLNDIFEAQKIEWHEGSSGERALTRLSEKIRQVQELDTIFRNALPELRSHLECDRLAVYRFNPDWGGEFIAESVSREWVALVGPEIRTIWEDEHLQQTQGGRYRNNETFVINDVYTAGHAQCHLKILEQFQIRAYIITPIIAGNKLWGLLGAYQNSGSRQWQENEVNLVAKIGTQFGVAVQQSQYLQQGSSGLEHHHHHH

[5] = molecular target: Biotinylated NpF2164g6 (1038–1206), Avi-tagged holo-protein; experiment: ELISA; purified biotinylated NpF2164g6 immobilised, purified FLAG-tagged binders, red-light conditions (Pg state)
[6] = molecular target: NpF2164g6 (1038–1206), holo-protein, not biotinylated; experiment: other fluorescence titration; Pr (dark) state fluorescence of NpF2164g6 against binder concentration, 1:1 binding model, gives Kd,D; 25 °C, PBS pH 7.2
[7] = molecular target: NpF2164g6 (1038–1206), holo-protein, not biotinylated; experiment: thermal reversion kinetics (UV-vis); observed thermal reversion rate of NpF2164g6 against binder concentration, gives Kd,L of the light (Pg) state; 25 °C, PBS pH 7.2
[8] = molecular target: T2, NpF2164g6 (1052–1206), N-terminal truncation (phycocyanobilin (PCB) chromophore linked to Cys90 (construct numbering); 15N label for NMR); experiment: dark state (Pr), thermal reversion
T2 chain: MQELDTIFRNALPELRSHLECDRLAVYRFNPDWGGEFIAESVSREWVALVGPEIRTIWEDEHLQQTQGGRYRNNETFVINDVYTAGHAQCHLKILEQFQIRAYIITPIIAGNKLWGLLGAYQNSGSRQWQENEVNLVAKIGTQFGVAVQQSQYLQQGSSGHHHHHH

[9] = molecular target: T2, NpF2164g6 (1052–1206), N-terminal …; experiment: light state (Pg), thermal reversion

B1: BNp-Red-1.2 (designed binder)
chain: MKLATIDQWLLKNAKEDAIAELKKAGITADAYFNWINNAWDVDYVNYRKNKILKAHAGSSGLEHHHHHH
With B1 the SEAP reporter activity in stably transfected CHO-K1 cells (NpF2164g6-FUS-VP16-NLS and E-BNp-Red-1.2-NLS), dark against 660 nm illumination for 24 h, bulk cell culture [1] was 24 fold, the SEAP reporter activity in stably transfected CHO-K1 cells (NpF2164g6-FUS-VP16-NLS and E-BNp-Red-1.2-NLS), dark against 660 nm illumination for 24 h, individual clones [1] was over 30 fold and the Kd [2] was 3.7 µM. For the same binder, the Kd [3] was 3.7 µM, the Kd [4] was 600 nM and the Kd [5] was over 100 µM. For the same binder, the Kd [6] was 3 µM and the Kd [7] was over 30 µM.

B2: BNp-Red-1.0 (binder of NpF2164g6-Red state) (designed binder)
chain: B1 chain with A29S, W35L, N38D, W40F
B2 was tested, and the Kd [8] was 7 µM, the Kd [2] was 7.9 µM and the Kd [9] was over 180 µM. It also gave a Kd [3] of 7.9 µM, a Kd [6] of 7 µM and a Kd [7] of over 200 µM.
